In the supplement of paper PMC9112550, “Optimization of the antimicrobial peptide Bac7 by deep mutational scanning” (BMC Biology, 2022):

Each sequence was assayed on Escherichia coli TOP10 (assay: shrunken log2 fold change of peptide-encoding DNA abundance (4.5 h post-induction vs induction); higher = less antimicrobial activity (less host growth inhibition)). Details: time post-induction: 4.5 h; library: site-saturation at positions 5, 18, 19, 20.
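Note: peptides expressed intracellularly from a pBAD plasmid library in pooled LB shake-flask culture, induced with 0.3% L-arabinose, DNA abundance read by NGS, three biological replicates, DESeq2 with apeglm shrinkage.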

Sequence | shrunken log2 fold change
RRIRKRPPRLPRPRPRPWGWPRP | 0.691
RRIRDRPPRLPRPRPRPINYPRP | 0.0585
RRIRKRPPRLPRPRPRPSYNPRP | -0.397
RRIRSRPPRLPRPRPRPAKDPRP | 0.135
RRIRHRPPRLPRPRPRPHHHPRP | -1
RRIRLRPPRLPRPRPRPCTYPRP | -0.683
RRIRVRPPRLPRPRPRPCDLPRP | -0.238
RRIRDRPPRLPRPRPRPFMNPRP | -0.117
RRIRKRPPRLPRPRPRPESRPRP | 0.625
RRIRIRPPRLPRPRPRPSVMPRP | -0.286
RRIRKRPPRLPRPRPRPESSPRP | -0.000321
RRIRERPPRLPRPRPRPEQSPRP | -0.0108
RRIRSRPPRLPRPRPRPQKNPRP | -0.247
RRIRRRPPRLPRPRPRPMWMPRP | 0.0619
RRIRYRPPRLPRPRPRPWHIPRP | -0.103
RRIRIRPPRLPRPRPRPHMPPRP | -1.11
RRIRPRPPRLPRPRPRPTFKPRP | 0.0985
RRIRDRPPRLPRPRPRPTGLPRP | -0.000418
RRIRKRPPRLPRPRPRPPKYPRP | -0.0749
RRIRWRPPRLPRPRPRPPQWPRP | 0.179
RRIRDRPPRLPRPRPRPVETPRP | 0.222
RRIRSRPPRLPRPRPRPRWIPRP | 0.00261
RRIRIRPPRLPRPRPRPAKDPRP | -0.268
RRIRYRPPRLPRPRPRPHFRPRP | -0.444
RRIRVRPPRLPRPRPRPQTDPRP | -0.27

Sequence | shrunken log2 fold change
RRIRDRPPRLPRPRPRPMCLPRP | 0.131
RRIRRRPPRLPRPRPRPLKKPRP | 0.169
RRIRWRPPRLPRPRPRPAFDPRP | 0.397
RRIRARPPRLPRPRPRPRKTPRP | 0.29
RRIRWRPPRLPRPRPRPPNGPRP | 0.034
RRIRQRPPRLPRPRPRPLVAPRP | 0.034
RRIRERPPRLPRPRPRPGYWPRP | -0.0572
RRIRERPPRLPRPRPRPWVNPRP | -0.00303
RRIRLRPPRLPRPRPRPIMGPRP | -0.0219
RRIRHRPPRLPRPRPRPVSLPRP | -0.0931
RRIRFRPPRLPRPRPRPRKVPRP | 0.352
RRIRLRPPRLPRPRPRPTTMPRP | -0.439
RRIRCRPPRLPRPRPRPGYVPRP | -0.0932
RRIRSRPPRLPRPRPRPKMMPRP | -0.214
RRIRNRPPRLPRPRPRPMSKPRP | -0.197
RRIRERPPRLPRPRPRPGICPRP | -0.0398
RRIRYRPPRLPRPRPRPQELPRP | -0.00884
RRIRHRPPRLPRPRPRPEGVPRP | 0.0659
RRIRSRPPRLPRPRPRPNFRPRP | -0.113
RRIRFRPPRLPRPRPRPHEPPRP | -0.164
RRIRNRPPRLPRPRPRPVETPRP | 0.157
RRIRHRPPRLPRPRPRPTNDPRP | -0.311
RRIRPRPPRLPRPRPRPISFPRP | -0.101
RRIRERPPRLPRPRPRPRCYPRP | -0.138
RRIRSRPPRLPRPRPRPPLYPRP | -0.0605

Sequence | shrunken log2 fold change
RRIRHRPPRLPRPRPRPFITPRP | -0.799
RRIRCRPPRLPRPRPRPVCGPRP | 0.268
RRIRQRPPRLPRPRPRPQFYPRP | -0.407
RRIRLRPPRLPRPRPRPLSLPRP | -0.145
RRIRVRPPRLPRPRPRPFREPRP | 0.0848
RRIRTRPPRLPRPRPRPRMPPRP | 0.199
RRIRMRPPRLPRPRPRPWTAPRP | -0.0195
RRIRLRPPRLPRPRPRPADRPRP | -0.0121
RRIRDRPPRLPRPRPRPVVRPRP | 0.155
RRIRNRPPRLPRPRPRPKGHPRP | -0.104
RRIRYRPPRLPRPRPRPMRNPRP | 0.174
RRIRERPPRLPRPRPRPNNLPRP | -1.05
RRIRQRPPRLPRPRPRPGPRPRP | 0.565
RRIRARPPRLPRPRPRPSPLPRP | 0.238
RRIRKRPPRLPRPRPRPWIWPRP | 1.96
RRIRFRPPRLPRPRPRPNPGPRP | 0.159
RRIRIRPPRLPRPRPRPREKPRP | 0.111
RRIRSRPPRLPRPRPRPTATPRP | 0.703
RRIRERPPRLPRPRPRPRVKPRP | -0.207
RRIRWRPPRLPRPRPRPIFTPRP | -0.173
RRIRHRPPRLPRPRPRPSDFPRP | 0.00333
RRIRVRPPRLPRPRPRPLRNPRP | 0.408
RRIRWRPPRLPRPRPRPHNDPRP | -0.324
RRIRYRPPRLPRPRPRPDVKPRP | -0.294
RRIRERPPRLPRPRPRPMHTPRP | 0.102

Sequence | shrunken log2 fold change
RRIRWRPPRLPRPRPRPKCVPRP | -0.0153
RRIRERPPRLPRPRPRPLEQPRP | -0.0811
RRIRFRPPRLPRPRPRPPHIPRP | -0.21
RRIRGRPPRLPRPRPRPRNLPRP | -0.0805
RRIRERPPRLPRPRPRPDIIPRP | 0.0463
RRIRKRPPRLPRPRPRPTGFPRP | 0.0653
RRIRWRPPRLPRPRPRPYQHPRP | -0.692
RRIRDRPPRLPRPRPRPTSFPRP | -0.0323
RRIRMRPPRLPRPRPRPAFIPRP | -0.398
RRIRWRPPRLPRPRPRPWVWPRP | 0.0506
RRIRMRPPRLPRPRPRPWYPPRP | -0.786
RRIRCRPPRLPRPRPRPRYSPRP | -0.712
RRIRDRPPRLPRPRPRPHMVPRP | -0.195
RRIRNRPPRLPRPRPRPLFEPRP | 0.205
RRIRHRPPRLPRPRPRPNRCPRP | -0.259
RRIRLRPPRLPRPRPRPFAFPRP | -0.442
RRIRERPPRLPRPRPRPFGDPRP | -0.0107
RRIRVRPPRLPRPRPRPCDYPRP | -0.845
RRIRVRPPRLPRPRPRPHIYPRP | -0.519
RRIRGRPPRLPRPRPRPDVHPRP | 0.867
RRIRYRPPRLPRPRPRPMCLPRP | -0.0113
RRIRARPPRLPRPRPRPMHMPRP | -0.0568
RRIRKRPPRLPRPRPRPQVMPRP | -0.162
RRIRWRPPRLPRPRPRPYSWPRP | -0.128
RRIRRRPPRLPRPRPRPTASPRP | 0.146

Sequence | shrunken log2 fold change
RRIRMRPPRLPRPRPRPENVPRP | -0.0285
RRIRVRPPRLPRPRPRPLNCPRP | -0.257
RRIRHRPPRLPRPRPRPVQTPRP | -0.011
RRIRFRPPRLPRPRPRPHVIPRP | -0.196
RRIRARPPRLPRPRPRPHECPRP | 0.423
RRIRRRPPRLPRPRPRPLDVPRP | 0.179
RRIRCRPPRLPRPRPRPADGPRP | -0.129
RRIRYRPPRLPRPRPRPKVTPRP | -0.114
RRIRVRPPRLPRPRPRPITVPRP | -1.15
RRIRQRPPRLPRPRPRPECGPRP | 0.238
RRIRQRPPRLPRPRPRPTPIPRP | 0.182
RRIRMRPPRLPRPRPRPTVFPRP | 0.498
RRIRVRPPRLPRPRPRPIYSPRP | -0.203
RRIRMRPPRLPRPRPRPVWKPRP | 0.178
RRIRCRPPRLPRPRPRPYEHPRP | -0.554
RRIRHRPPRLPRPRPRPLMFPRP | -0.236
RRIRGRPPRLPRPRPRPYDNPRP | -0.183
RRIRDRPPRLPRPRPRPTPCPRP | 0.25
RRIRNRPPRLPRPRPRPMMMPRP | -0.0535
RRIRDRPPRLPRPRPRPCYDPRP | -0.129
RRIRRRPPRLPRPRPRPNPWPRP | 0.231
RRIRNRPPRLPRPRPRPKNLPRP | 0.13
RRIRIRPPRLPRPRPRPTVLPRP | -0.369
RRIRARPPRLPRPRPRPYESPRP | -0.103
RRIRVRPPRLPRPRPRPDNQPRP | -0.0991

Sequence | shrunken log2 fold change
RRIRQRPPRLPRPRPRPIVTPRP | -0.364
RRIRMRPPRLPRPRPRPFSGPRP | -0.0134
RRIRVRPPRLPRPRPRPPQYPRP | -0.19
RRIRQRPPRLPRPRPRPDYWPRP | 0.156
RRIRQRPPRLPRPRPRPPWSPRP | 0.223
RRIRVRPPRLPRPRPRPCHYPRP | -0.0563
RRIRNRPPRLPRPRPRPQHGPRP | -0.0487
RRIRLRPPRLPRPRPRPCMRPRP | 0.188
RRIRNRPPRLPRPRPRPLDEPRP | 0.126
RRIRWRPPRLPRPRPRPQALPRP | 0.113
RRIRCRPPRLPRPRPRPNCQPRP | -0.134
RRIRCRPPRLPRPRPRPDPIPRP | -0.0573
RRIRHRPPRLPRPRPRPGIQPRP | -0.277
RRIRIRPPRLPRPRPRPYLLPRP | -1.52
RRIRLRPPRLPRPRPRPIHSPRP | -1.61
RRIRTRPPRLPRPRPRPNFPPRP | -0.00778
RRIRIRPPRLPRPRPRPLMGPRP | -0.166
RRIRFRPPRLPRPRPRPQIKPRP | -0.291
RRIRLRPPRLPRPRPRPLHSPRP | -0.0843
RRIRVRPPRLPRPRPRPMAIPRP | -0.11
RRIRHRPPRLPRPRPRPNDNPRP | -1.03
RRIRKRPPRLPRPRPRPWEVPRP | 0.0986
RRIRERPPRLPRPRPRPVFDPRP | -0.461
RRIRPRPPRLPRPRPRPGGLPRP | 0.131
RRIRKRPPRLPRPRPRPRYEPRP | 0.362
